Source: patent US20240124553A1

Experiments:
Test in all cases: flow cytometry, transfected 293T cells
[1] = target: CHIKV E2-E1 envelope glycoproteins (strain S27), E2 mutant D77A (chikungunya virus strain S27) (UniProt Q8JUX5)
[2] = target: CHIKV E2-E1 envelope glycoproteins (strain S27), E2 mutant T112A (chikungunya virus strain S27) (UniProt Q8JUX5)
[3] = target: CHIKV E2-E1 envelope glycoproteins (strain S27), E2 mutant L46A (chikungunya virus strain S27) (UniProt Q8JUX5)
[4] = target: CHIKV E2-E1 envelope glycoproteins (strain S27), E2 mutant T110A (chikungunya virus strain S27) (UniProt Q8JUX5)
[5] = target: CHIKV E2-E1 envelope glycoproteins (strain S27), E2 mutant G57A (chikungunya virus strain S27) (UniProt Q8JUX5)
[6] = target: CHIKV E2-E1 envelope glycoproteins (strain S27), E2 mutant F115A (chikungunya virus strain S27) (UniProt Q8JUX5)
[7] = target: CHIKV E2-E1 envelope glycoproteins (strain S27), E2 mutant M97A (chikungunya virus strain S27) (UniProt Q8JUX5)
[8] = target: CHIKV E2-E1 envelope glycoproteins (strain S27), E2 mutant F84A (chikungunya virus strain S27) (UniProt Q8JUX5)
[9] = target: CHIKV E2-E1 envelope glycoproteins (strain S27), E2 mutant L83A (chikungunya virus strain S27) (UniProt Q8JUX5)
[10] = target: CHIKV E2-E1 envelope glycoproteins (strain S27), E2 mutant S61A (chikungunya virus strain S27) (UniProt Q8JUX5)
[11] = target: CHIKV E2-E1 envelope glycoproteins (strain S27), E2 mutant A76S (chikungunya virus strain S27) (UniProt Q8JUX5)
[12] = target: CHIKV E2-E1 envelope glycoproteins (strain S27), E2 mutant P128A (chikungunya virus strain S27) (UniProt Q8JUX5)
[13] = target: CHIKV E2-E1 envelope glycoproteins (strain S27), E2 mutant I54A (chikungunya virus strain S27) (UniProt Q8JUX5)
[14] = target: CHIKV E2-E1 envelope glycoproteins (strain S27), E2 mutant I93A (chikungunya virus strain S27) (UniProt Q8JUX5)
[15] = target: CHIKV E2-E1 envelope glycoproteins (strain S27), E2 mutant K107A (chikungunya virus strain S27) (UniProt Q8JUX5)
[16] = target: CHIKV E2-E1 envelope glycoproteins (strain S27), E2 mutant M70A (chikungunya virus strain S27) (UniProt Q8JUX5)
[17] = target: CHIKV E2-E1 envelope glycoproteins (strain S27), E2 mutant A103S (chikungunya virus strain S27) (UniProt Q8JUX5)
[18] = target: CHIKV E2-E1 envelope glycoproteins (strain S27), E2 mutant N39A (chikungunya virus strain S27) (UniProt Q8JUX5)
[19] = target: CHIKV E2-E1 envelope glycoproteins (strain S27), E2 mutant Q53A (chikungunya virus strain S27) (UniProt Q8JUX5)
[20] = target: CHIKV E2-E1 envelope glycoproteins (strain S27), E2 mutant H127A (chikungunya virus strain S27) (UniProt Q8JUX5)
[21] = target: CHIKV E2-E1 envelope glycoproteins (strain S27), E2 mutant T94A (chikungunya virus strain S27) (UniProt Q8JUX5)
[22] = target: CHIKV E2-E1 envelope glycoproteins (strain S27), E2 mutant F129A (chikungunya virus strain S27) (UniProt Q8JUX5)
[23] = target: CHIKV E2-E1 envelope glycoproteins (strain S27), E2 mutant H99A (chikungunya virus strain S27) (UniProt Q8JUX5)
[24] = target: CHIKV E2-E1 envelope glycoproteins (strain S27), E2 mutant I121A (chikungunya virus strain S27) (UniProt Q8JUX5)
[25] = target: CHIKV E2-E1 envelope glycoproteins (strain S27), E2 mutant H62A (chikungunya virus strain S27) (UniProt Q8JUX5)
[26] = target: CHIKV E2-E1 envelope glycoproteins (strain S27), E2 mutant Q49A (chikungunya virus strain S27) (UniProt Q8JUX5)
[27] = target: CHIKV E2-E1 envelope glycoproteins (strain S27), E2 mutant G95A (chikungunya virus strain S27) (UniProt Q8JUX5)
[28] = target: CHIKV E2-E1 envelope glycoproteins (strain S27), E2 mutant L111A (chikungunya virus strain S27) (UniProt Q8JUX5)
[29] = target: CHIKV E2-E1 envelope glycoproteins (strain S27), E2 mutant R119A (chikungunya virus strain S27) (UniProt Q8JUX5)
[30] = target: CHIKV E2-E1 envelope glycoproteins (strain S27), E2 mutant G55A (chikungunya virus strain S27) (UniProt Q8JUX5)
[31] = target: CHIKV E2-E1 envelope glycoproteins (strain S27), E2 mutant C125A (chikungunya virus strain S27) (UniProt Q8JUX5)
[32] = target: CHIKV E2-E1 envelope glycoproteins (strain S27), E2 mutant I56A (chikungunya virus strain S27) (UniProt Q8JUX5)
[33] = target: CHIKV E2-E1 envelope glycoproteins (strain S27), E2 mutant K66A (chikungunya virus strain S27) (UniProt Q8JUX5)

| Substance | Binding Reactivity (% WT) [1] | Binding Reactivity (% WT) [2] | Binding Reactivity (% WT) [3] | Binding Reactivity (% WT) [4] | Binding Reactivity (% WT) [5] | Binding Reactivity (% WT) [7] | Binding Reactivity (% WT) [8] | Binding Reactivity (% WT) [9] | Binding Reactivity (% WT) [10] | Binding Reactivity (% WT) [12] | Binding Reactivity (% WT) [13] | Binding Reactivity (% WT) [14] | Binding Reactivity (% WT) [15] | Binding Reactivity (% WT) [16] | Binding Reactivity (% WT) [17] | Binding Reactivity (% WT) [18] | Binding Reactivity (% WT) [19] | Binding Reactivity (% WT) [20] | Binding Reactivity (% WT) [21] | Binding Reactivity (% WT) [22] | also measured |
| --- | --- | --- | --- | --- | --- | --- | --- | --- | --- | --- | --- | --- | --- | --- | --- | --- | --- | --- | --- | --- | --- |
| CHIKV mAb CHKV-88 (antibody) | 94.7 % WT | 71.6 % WT | 23.6 % WT | 107 % WT | 134 % WT | 85.1 % WT | 83.9 % WT | 38.8 % WT | 105 % WT | 102 % WT | 116 % WT | 29.1 % WT | 99.2 % WT | 93.7 % WT | 85 % WT | 124 % WT | 85 % WT | 91 % WT | 109 % WT | 25.1 % WT | Binding Reactivity (% WT) [6]: 25.1 % WT; Binding Reactivity (% WT) [11]: 122 % WT; Binding Reactivity (% WT) [23]: 85.6 % WT; Binding Reactivity (% WT) [24]: 111 % WT; Binding Reactivity (% WT) [25]: 101 % WT; Binding Reactivity (% WT) [26]: 87.1 % WT; Binding Reactivity (% WT) [27]: 89 % WT; Binding Reactivity (% WT) [28]: 50.9 % WT; Binding Reactivity (% WT) [29]: 99.5 % WT; Binding Reactivity (% WT) [30]: 111 % WT; Binding Reactivity (% WT) [31]: 3.7 % WT; Binding Reactivity (% WT) [32]: 116 % WT; Binding Reactivity (% WT) [33]: 103 % WT |
| CHIKV mAb C9 (antibody) | 93.3 % WT | 50.5 % WT | 1.7 % WT | 88 % WT | 109 % WT | 76.3 % WT | 76.2 % WT | 18.7 % WT | 93.1 % WT | 112 % WT | 110 % WT | 10.4 % WT | 95.6 % WT | 81 % WT | 69.7 % WT | 108 % WT | 39.6 % WT | 92.4 % WT | 116 % WT | 6.7 % WT | Binding Reactivity (% WT) [6]: 4.3 % WT; Binding Reactivity (% WT) [11]: 107 % WT; Binding Reactivity (% WT) [23]: 57.4 % WT; Binding Reactivity (% WT) [24]: 96.7 % WT; Binding Reactivity (% WT) [25]: 93.1 % WT; Binding Reactivity (% WT) [26]: 47 % WT; Binding Reactivity (% WT) [27]: 86.2 % WT; Binding Reactivity (% WT) [28]: 23.2 % WT; Binding Reactivity (% WT) [29]: 88 % WT; Binding Reactivity (% WT) [30]: 75.9 % WT; Binding Reactivity (% WT) [31]: 0 % WT; Binding Reactivity (% WT) [32]: 114 % WT; Binding Reactivity (% WT) [33]: 85.7 % WT |
| CHIKV mAb IM-CKV065 (antibody) | 61.2 % WT | 16.2 % WT | -2.7 % WT | 72.1 % WT | 108 % WT | 65.7 % WT | 51.6 % WT | 6.2 % WT | 112 % WT | 80.3 % WT | 80.8 % WT | -0.9 % WT | 95.2 % WT | 104 % WT | 46.8 % WT | 120 % WT | 43.3 % WT | 81.9 % WT | 102 % WT | -1.1 % WT | Binding Reactivity (% WT) [6]: -0.2 % WT; Binding Reactivity (% WT) [11]: 125 % WT; Binding Reactivity (% WT) [23]: 27.5 % WT; Binding Reactivity (% WT) [24]: 111 % WT; Binding Reactivity (% WT) [25]: 88.5 % WT; Binding Reactivity (% WT) [26]: 37.3 % WT; Binding Reactivity (% WT) [27]: 92.6 % WT; Binding Reactivity (% WT) [28]: 6.6 % WT; Binding Reactivity (% WT) [29]: 120 % WT; Binding Reactivity (% WT) [30]: 86.2 % WT; Binding Reactivity (% WT) [31]: -2.9 % WT; Binding Reactivity (% WT) [32]: 102 % WT; Binding Reactivity (% WT) [33]: 99.6 % WT |
| Mxra8-Fc (mouse Mxra8 extracellular domain fused to mouse IgG2b Fc) (Fc fusion) | 83.7 % WT | 44.2 % WT | 4.8 % WT | 99.6 % WT | 106 % WT | 95.1 % WT | 77.6 % WT | 17.3 % WT | 116 % WT | 122 % WT | 104 % WT | 14.6 % WT | 84.6 % WT | 110 % WT | 91.3 % WT | 91.9 % WT | 26.3 % WT | 78 % WT | 99.7 % WT | 4.1 % WT | Binding Reactivity (% WT) [23]: 58.1 % WT; Binding Reactivity (% WT) [24]: 12.1 % WT; Binding Reactivity (% WT) [25]: 102 % WT; Binding Reactivity (% WT) [26]: 56.8 % WT; Binding Reactivity (% WT) [27]: 94.6 % WT; Binding Reactivity (% WT) [28]: 25.7 % WT; Binding Reactivity (% WT) [29]: 0 % WT; Binding Reactivity (% WT) [30]: 101 % WT; Binding Reactivity (% WT) [31]: -0.2 % WT; Binding Reactivity (% WT) [32]: 91.7 % WT |
| CHIKV mAb IM-CKV063 (antibody) | 92.2 % WT | 43.1 % WT | 2.7 % WT | 88.1 % WT | 96.5 % WT | 69.9 % WT | 61.7 % WT | 18.7 % WT | 100 % WT | 86 % WT | 102 % WT | 8.4 % WT | 86.8 % WT | 81.7 % WT | 65.8 % WT | 120 % WT | 37.3 % WT | 96.1 % WT | 95.5 % WT | 3.9 % WT | Binding Reactivity (% WT) [6]: 3.6 % WT; Binding Reactivity (% WT) [11]: 107 % WT; Binding Reactivity (% WT) [23]: 63.8 % WT; Binding Reactivity (% WT) [24]: 109 % WT; Binding Reactivity (% WT) [25]: 79.6 % WT; Binding Reactivity (% WT) [26]: 55.4 % WT; Binding Reactivity (% WT) [27]: 88.9 % WT; Binding Reactivity (% WT) [28]: 20.3 % WT; Binding Reactivity (% WT) [29]: 72 % WT; Binding Reactivity (% WT) [30]: 83.3 % WT; Binding Reactivity (% WT) [31]: 0.5 % WT; Binding Reactivity (% WT) [32]: 111 % WT; Binding Reactivity (% WT) [33]: 84.2 % WT |
